Here are results for 56 sequences from the Immune Epitope Database (IEDB).

The target in one assay is HLA-A*23:01. As to the kind of experiment: IEDB peptide-MHC binding, purified MHC/competitive/radioactivity; filed as Kd, often an IC50 or EC50 that approximates it; ≥ and ≤ were set here for values at or beyond the usual limits of such assays.
Assay [1] concerns the target HLA-A*01:01. The assay is described as above.
For assay [2], the target named is HLA-A*01:01. The assay can be described thus: IEDB peptide-MHC binding, purified MHC/direct/fluorescence; filed as Kd, often an IC50 or EC50 that approximates it; ≥ and ≤ were set here for values at or beyond the usual limits of such assays. The note with it: source organism: Human immunodeficiency virus 1.
The next assay has as its target HLA-B*08:01. As to the kind of experiment: IEDB peptide-MHC binding, purified MHC/competitive/radioactivity; filed as Kd, often an IC50 or EC50 that approximates it; ≥ and ≤ were set here for values at or beyond the usual limits of such assays.
Assay [3] concerns the target HLA-A*02:01. As to the kind of experiment: IEDB peptide-MHC binding, purified MHC/competitive/fluorescence; ≥ and ≤ were set here for values at or beyond the usual limits of such assays.
Another assay addresses HLA-A*03:01. The assay can be described thus: IEDB peptide-MHC binding, purified MHC/direct/fluorescence; filed as Kd, often an IC50 or EC50 that approximates it; ≥ and ≤ were set here for values at or beyond the usual limits of such assays. The following applies: source organism: Influenza A virus (A/tiger/Thailand/CU-T4/04(H5N1)).
Another assay has as its target HLA-A*11:01. The description is as above. The following applies: source organism: Influenza A virus (A/tiger/Thailand/CU-T4/04(H5N1)).
In another assay the target is HLA-A*24:02. The assay can be described thus: IEDB peptide-MHC binding, purified MHC/competitive/radioactivity; filed as Kd, often an IC50 or EC50 that approximates it; ≥ and ≤ were set here for values at or beyond the usual limits of such assays.
The next assay concerns the target HLA-A*30:01. The description is as above.
The next assay has as its target HLA-A*30:02. The assay is described as above.
The target of the next assay is HLA-A*69:01. As to the kind of experiment: IEDB peptide-MHC binding, purified MHC/direct/fluorescence; filed as Kd, often an IC50 or EC50 that approximates it; ≥ and ≤ were set here for values at or beyond the usual limits of such assays.
The target in assay [4] is HLA-A*02:01. Described as above.
The next assay concerns the target HLA-A*02:03. As to the kind of experiment: IEDB peptide-MHC binding, purified MHC/competitive/radioactivity; filed as Kd, often an IC50 or EC50 that approximates it; ≥ and ≤ were set here for values at or beyond the usual limits of such assays. The following applies: source organism: Vaccinia virus WR.
The target of a further assay is HLA-A*02:06. The assay is described as above. The note with it: source organism: Vaccinia virus WR.
The target of another assay is HLA-A*02:02. The assay is described as above. The note with it: source organism: Vaccinia virus WR.
Setting [5] is: source organism: Dengue virus 4 Philippines/H241/1956.
Where [6] appears, read: source organism: Dengue virus 3 Martinique/1243/1999.
[7] abbreviates: source organism: Vaccinia virus WR.
The mark [8] stands for this setting: source organism: Sudan ebolavirus.
Where [9] appears, read: source organism: Dengue virus 2 Jamaica/1409/1983.
[10] abbreviates: source organism: Zaire ebolavirus.
[11] abbreviates: source organism: Dengue virus 1 Brazil/97-11/1997.
Where [12] appears, read: source organism: Francisella tularensis subsp. tularensis FSC198.
Where [13] appears, read: source organism: Vibrio alginolyticus 12G01.

Take MWKQITNEL: the Kd (commonly the free concentration of one partner at which half of the binding sites on the other are occupied at equilibrium, for simple one-to-one binding) with HLA-A*23:01 (setting [5]) was found to be 144 nM.

On to NLTSTWVTY, for which, in the assay with HLA-A*01:01 [1] (setting [6]), the Kd is 1710 nM. Sequence NPDIVIYQY had a Kd in the assay with HLA-A*01:01 [2] not below 21000 nM.

As for NPGARNARL, the Kd in the assay with HLA-B*08:01 (setting [7]) is 6.19 nM. For NQNALVCGL, the IC50 (as a rule, the concentration needed to halve the response being measured) with HLA-A*02:01 [3] (setting [8]) was not below 122000 nM.

Take NSPVFNYNK: the figures for the Kd with HLA-A*03:01 and with HLA-A*11:01 were not below 20000 nM and 116 nM, respectively. Turning to NYKERMVTF, the Kd was 101 nM with HLA-A*23:01 (setting [5]) and 19.4 nM with HLA-A*24:02 (setting [5]). QIDNFSLGV: in the assay with HLA-A*01:01 [1] (setting [9]), the Kd is 661 nM.

As for QVSDVDKLV, the IC50 with HLA-A*02:01 [3] (setting [10]) is not below 70700 nM. Take RARFIGGYI: the Kd with HLA-A*30:01 (setting [7]) was found to be 0.263 nM.

With RARVSQGAG, the Kd with HLA-A*30:01 (setting [11]) was 194 nM. For the sequence RFANALLAL, the Kd with HLA-A*23:01 (setting [6]) worked out at 142 nM; with HLA-A*24:02 (setting [6]), 689 nM. Take RGDLPVWLSY: the Kd with HLA-A*30:02 (setting [11]) was determined as 4100 nM. With RRFRRPMSL, the Kd in the assay with HLA-B*08:01 (setting [7]) was determined as 111 nM. Consider RTPQDNQLTY, for which the Kd in the assay with HLA-A*30:02 (setting [9]) came to 1.02 nM. For the sequence RTYSSSIIA, the Kd with HLA-A*30:01 (setting [7]) came out at 49.8 nM.

Consider RYLEFEALGF, for which the results for the Kd with HLA-A*23:01 (setting [6]) and in the assay with HLA-A*24:02 (setting [6]) were 4.68 nM and 38.1 nM, respectively. With RYLRDQQLL, in the assay with HLA-A*24:02 (source organism: HIV-1 M:B_ARV2/SF2), the Kd amounted to 30 nM.

For RYRSGFWII, in the assay with HLA-A*30:01 (setting [7]), the Kd worked out at 8.74 nM. As to SAKYINSSI, the Kd with HLA-B*08:01 (setting [7]) came out at 137 nM. With SALYSYASA, in the assay with HLA-A*30:01 (setting [7]), the Kd was found to be 36.7 nM. As to SGALWDVPSP, the Kd with HLA-A*30:01 (setting [5]) is 11000 nM. For SILEYAKSI, the Kd was 107 nM with HLA-A*69:01 (setting [12]) and 102 nM with HLA-A*02:01 [4] (setting [12]). With SISIKLTDS, the IC50 with HLA-A*02:01 [3] (source organism: Vaccinia virus Copenhagen) was not below 107000 nM. For SITEAELTGY, the Kd in the assay with HLA-A*01:01 [1] (setting [9]) came out at 391 nM. As to SLLRNDVPM, the Kd in the assay with HLA-B*08:01 (setting [6]) was determined as 47.5 nM. For the sequence SLNTKFKTL, in the assay with HLA-B*08:01 (setting [7]), the Kd was found to be 8.68 nM.

Consider SMFMSLLPA, for which the Kd in the assay with HLA-B*08:01 (setting [7]) was 55.5 nM. In the case of SPKRLATAI, in the assay with HLA-B*08:01 (setting [6]), the Kd stood at 14.1 nM. With SSAMVQVHS, in the assay with HLA-A*02:01 [3] (setting [10]), the half-maximal inhibitory concentration (IC50) was not below 595000 nM.

As to SVKINFEFV, the Kd with HLA-B*08:01 (setting [7]) was 105 nM. The same measure, in the same setting: with SVYIRPTSL the figure was 10.7 nM.

With SYKVASAGI, in the assay with HLA-A*24:02 (setting [5]), the Kd amounted to 105 nM.

TAQEQHNAA came in with an IC50 with HLA-A*02:01 [3] (setting [8]) of 27500 nM. Regarding TFKMRPMFA, the Kd with HLA-A*30:01 (setting [11]) is 23.1 nM. With TFKNAHAKK, the Kd with HLA-A*30:01 (setting [6]) was 111 nM. With TLGRNKRPRL, the Kd in the assay with HLA-B*08:01 (source organism: Dengue virus 3 Sri Lanka/1266/2000) came out at 395 nM. In the case of TMGVLCLAIL, the Kd with HLA-B*08:01 (setting [6]) was 6430 nM. On to TVRDGQLEV, for which the Kd with HLA-A*30:01 (setting [7]) stood at 12.8 nM. Turning to TWKLARASF, the Kd with HLA-A*23:01 (setting [11]) stood at 218 nM; with HLA-A*24:02 (setting [11]), 224 nM.

Take VDRKGKVVGL: the Kd with HLA-B*08:01 (setting [9]) amounted to 6320 nM. Regarding VLLNAPSEA, the IC50 in the assay with HLA-A*02:01 [3] (source organism: Human alphaherpesvirus 1 strain 17) came to 19 nM.

Consider VLVHPQWVL, for which the half-inhibitory concentration (IC50) with HLA-A*02:01 [3] (source organism: Homo sapiens) was 2080 nM.

With VMKIGIGVLL, the Kd in the assay with HLA-B*08:01 (setting [6]) worked out at 516 nM. Take VMKRYSAPFE: the Kd in the assay with HLA-A*30:01 (setting [5]) is 5920 nM.

For the sequence VTEKDSPVNI, in the assay with HLA-A*01:01 [1] (setting [9]), the Kd was not below 40900 nM. In the case of VVRGIDGGV, the Kd with HLA-A*69:01 (setting [13]) and with HLA-A*02:01 [4] (setting [13]) was not below 20000 nM throughout. For VWEVEDYGF, the Kd with HLA-A*23:01 (setting [6]) amounted to 296 nM. VYPMSIPATL: the results for the Kd with HLA-A*23:01 (setting [11]) and with HLA-A*24:02 (setting [11]) were 6.39 nM and 78.1 nM, respectively. As to WFVERNMVI, in the assay with HLA-A*23:01 (setting [6]), the Kd worked out at 340 nM.

In the case of WMDLLRALI, the Kd with HLA-A*01:01 [1] (setting [5]) was found to be 9950 nM.

Take WTMKIGIGIL: the Kd with HLA-B*08:01 (setting [11]) was 342 nM.

As for YKKLKFRFI, the Kd with HLA-B*08:01 (setting [7]) was 196 nM. YLSGTDDEVI: the Kd turned out to be 211 nM with HLA-A*02:03, 947 nM in the assay with HLA-A*02:06 and 6.26 nM with HLA-A*02:02.

As to YLYNKYSFKL, the figures for the Kd with HLA-A*02:03, with HLA-A*02:06 and in the assay with HLA-A*02:02 were 0.0349 nM, 0.14 nM and 0.109 nM, respectively. In the assay with HLA-A*02:01 [3] (setting [7]), YSHGDIKAS had an IC50 not below 72000 nM.
